Experimental data reported in US20250223317A1, “KEAP1 INHIBITING PROTEIN-LIKE POLYMERS” (NORTHWESTERN UNIVERSITY, priority 2022, published 2025).

Tested on: Antioxidant Response Element (ARE) Luciferase HepG2 Reporter cells
Description: Cells were plated at a seeding density of 25k cells/well into 96 well plates in cell growth media and allowed to incubate for 24 hours. […] After 24 hours, 10 μL of MTS reagent was added to each well, and the cells incubated for four hours at 37° C. Absorbance was measured at 490 nm using a Perkin Elmer EnSpire plate reader every hour after MTS addition. Viability was assessed after background subtraction from cell free control wells and calculated as relative viability based on the average of control wells. Viability is reported as a percentage of control groups and prepared for presentation using Prism9.
The reporter and cell viability assays were performed over a concentration range of 0 μM to 10 μM for each of the polymers described.
Cells were plated at a seeding density of 25k cells/well into 96 well plates in cell growth media and allowed to incubate for 24 hours. […] Luminescence was assessed using the Biotek SynergyNeo2 plate reader at the High Throughput Analysis Core at Northwestern University. Background luminescence of cell free controls wells was subtracted from test wells. […] Absorbance was measured at 490 nm using a Perkin Elmer EnSpire plate reader every hour after MTS addition. Viability was assessed after background subtraction from cell free control wells and calculated as relative viability based on the average of control wells. […]

DLG Homopolymer (RQDIDLGVSRR) was tested, and the “tolerability (MTS assay)” value was “well tolerated”.
